Substrate: NCC(N)C(=O)O
Assay: purified protein
Type: biochemical, Salmonella enterica
Conditions: potassium phosphate pH 8.0, 28 °C, PLP, NADH, LDH coupling

B1: Diamino propionic acid (DAP) ammonia lyase (Salmonella enterica subsp. enterica serovar Typhimurium str. LT2) (protein)
chain: MHELIKYQFNTRRKKYGTGAALSLLNGNVGHEVLAFHKKLPNYAVTPLHNLAHLSQRLGLGSIHIKDESWRFGLNAFKGLGGSYAVGKYLADKLQCDINSLSFAALNTPEIKEKIKDCVFVTATDGNHGRGVAWAAEQLGLKAVVYMPKGSSLIRAENIRHHGAECTITDLNYDDAVRLAHRMAQTKGWVLLQDTAWTGYEEIPTWIMQGYMTLAVEAYEQLAETNSPLPTHLILQAGVGSFAGSVMGYFVEKMQENIPNIIVVEPHQANCLYQSAVMDDGQPHCVTGDMATIMAGLACGEPNIISWPIIRDNTSCFISADDCLAAKGMRISAAPRPGTDTPFISGESGAIGVGLLYELMNNMHYQDLANRLQLDASAHVLLISTEGDTSPDIYEDIVWNGRSA
- Km: 0.685 mM
